From paper PMC9728965, “Stomatal CO2/bicarbonate sensor consists of two interacting protein kinases, Raf-like HT1 and non-kinase-activity requiring MPK12/MPK4” (Science Advances, 2022) come the findings set out here.

Substitutions are numbered along the chain they refer to.

Assay [1] deals with T1, His-HT1 (high leaf temperature 1, Raf-like protein kinase), wild type (Arabidopsis thaliana, UniProt Q2MHE4 1-390).
T1 construct: HT1 protein kinase of Arabidopsis thaliana; UniProt Q2MHE4 is printed as the 'long form of HT1' used for the AlphaFold2 model; Expressed from pET30a(+); source: E. coli, purified (Ni resin beads); not shown: His tag, N-terminal, kept
T1 sequence (looked up): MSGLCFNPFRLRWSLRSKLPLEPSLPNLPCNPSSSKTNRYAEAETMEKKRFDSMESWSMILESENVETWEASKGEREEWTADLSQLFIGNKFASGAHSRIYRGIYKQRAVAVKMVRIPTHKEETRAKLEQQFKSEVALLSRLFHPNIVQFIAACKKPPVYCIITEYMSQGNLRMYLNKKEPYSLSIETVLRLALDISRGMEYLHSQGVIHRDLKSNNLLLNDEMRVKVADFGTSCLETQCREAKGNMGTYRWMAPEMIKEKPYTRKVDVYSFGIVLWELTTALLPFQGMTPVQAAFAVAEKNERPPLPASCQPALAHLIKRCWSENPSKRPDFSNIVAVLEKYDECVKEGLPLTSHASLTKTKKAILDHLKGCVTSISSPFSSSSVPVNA
As to the kind of experiment: pull-down; GST-MPK on glutathione Sepharose 4B beads, His-HT1 as prey; 5 ug of each protein in 200 ul of 50 mM tris-HCl pH 7.5, 150 mM NaCl, 0.1% Triton X-100, 1 mM DTT; 20 mM NaHCO3 or 20 mM NaCl (control) in all buffers including washes; room temperature; immunoblot with anti-GST and anti-His. Particulars: both partners purified. (In western blotting, separated proteins are transferred to a membrane and probed.)

A further assay deals with T2, His-HT1-R173Q (Arabidopsis thaliana, UniProt Q2MHE4 1-390, R173Q).
T2 construct: HT1 protein kinase of Arabidopsis thaliana with R173Q (dominant allele from an EMS screen); As m1 with the point mutation; source: E. coli, purified (Ni resin beads); not shown: His tag, N-terminal, kept
T2 sequence (looked up): T1 sequence (looked up) with R173Q
The description is as above. Particulars: both partners purified.

B1: GST-MPK4 (mitogen-activated protein kinase 4) (enzyme, Arabidopsis thaliana, UniProt Q39024 1-376, looked up)
chain: MSAESCFGSSGDQSSSKGVATHGGSYVQYNVYGNLFEVSRKYVPPLRPIGRGAYGIVCAATNSETGEEVAIKKIGNAFDNIIDAKRTLREIKLLKHMDHENVIAVKDIIKPPQRENFNDVYIVYELMDTDLHQIIRSNQPLTDDHCRFFLYQLLRGLKYVHSANVLHRDLKPSNLLLNANCDLKLGDFGLARTKSETDFMTEYVVTRWYRAPELLLNCSEYTAAIDIWSVGCILGETMTREPLFPGKDYVHQLRLITELIGSPDDSSLGFLRSDNARRYVRQLPQYPRQNFAARFPNMSAGAVDLLEKMLVFDPSRRITVDEALCHPYLAPLHDINEEPVCVRPFNFDFEQPTLTEENIKELIYRETVKFNPQDSV
notes: MPK4, MAP kinase of Arabidopsis thaliana; UniProt Q39024 printed for the model; Expressed from pGEX-6P-1; source: E. coli, purified (glutathione Sepharose beads); not shown: GST, N-terminal, kept
Consider B1, for which the binding result (in assay [1]; with His-HT1-R173Q) was “binds” throughout.

B2: GST-MPK12 (mitogen-activated protein kinase 12) (enzyme, Arabidopsis thaliana, UniProt Q8GYQ5 1-372, looked up)
chain: MSGESSSGSTEHCIKVVPTHGGRYVQYNVYGQLFEVSRKYVPPIRPIGRGACGIVCAAVNSVTGEKVAIKKIGNAFDNIIDAKRTLREIKLLRHMDHENVITIKDIVRPPQRDIFNDVYIVYELMDTDLQRILRSNQTLTSDQCRFLVYQLLRGLKYVHSANILHRDLRPSNVLLNSKNELKIGDFGLARTTSDTDFMTEYVVTRWYRAPELLLNCSEYTAAIDIWSVGCILGEIMTGQPLFPGKDYVHQLRLITELVGSPDNSSLGFLRSDNARRYVRQLPRYPKQQFAARFPKMPTTAIDLLERMLVFDPNRRISVDEALGHAYLSPHHDVAKEPVCSTPFSFDFEHPSCTEEHIKELIYKESVKFNPDH
notes: MPK12, MAP kinase of Arabidopsis thaliana; UniProt Q8GYQ5 printed for the model; Expressed from pGEX-6P-1; source: E. coli, purified (glutathione Sepharose beads); not shown: GST, N-terminal, kept
In the case of B2, in assay [1], the binding result was “binds”.
